In patent US20160251421A1 (AstraZeneca / MedImmune, published 2016):
Where a chain is given by its changes, count along the chain named.

T1: biotinylated recombinant human Angiopoietin-2 (R&D Systems, Inc. Cat. No. BT623) (human, UniProt O15123 19-496, limits assumed, biotinylated (sites not given))
T1 construct: Bought reagent; also called Ang-2; Ang2
T1 sequence (looked up): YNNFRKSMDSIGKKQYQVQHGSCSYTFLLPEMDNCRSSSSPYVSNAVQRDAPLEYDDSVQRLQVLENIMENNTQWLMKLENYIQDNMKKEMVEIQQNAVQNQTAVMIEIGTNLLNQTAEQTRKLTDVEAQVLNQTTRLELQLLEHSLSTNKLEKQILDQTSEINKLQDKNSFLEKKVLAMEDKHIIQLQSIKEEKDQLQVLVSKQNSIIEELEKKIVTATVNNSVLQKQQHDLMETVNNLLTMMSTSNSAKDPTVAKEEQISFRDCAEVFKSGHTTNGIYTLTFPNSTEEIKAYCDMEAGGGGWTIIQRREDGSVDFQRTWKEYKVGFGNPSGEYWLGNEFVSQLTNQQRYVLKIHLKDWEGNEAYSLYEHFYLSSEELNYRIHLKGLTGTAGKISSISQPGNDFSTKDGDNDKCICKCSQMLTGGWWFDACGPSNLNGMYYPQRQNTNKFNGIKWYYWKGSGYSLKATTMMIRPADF

B1: anti-Ang-2 monoclonal antibody 5.88.3 (antibody, V domains shown)
VH: EVQMVESGGGLVQPGGSLRLSCAASGFTLRSYWMSWVRQAPGKGLEWVANIKEDGSEKYHVDSVKGRFTISRDNAENSLFLQMSSLRAEDTAVYYCARDMEASAGLFDYWGQGTLVTVSS
VL: EIVMTQSPATLSVSPGERAILSCRASQSISSNLAWYQQKPGQAPRLLIYGASTRATGIPARFSGSGSGTEFTLTISSLQSEDFAVYYCQQYNYWWTFGQGTKVEIKR
notes: Fully human IgG kappa from XenoMouse hybridoma (strains XMG2 and XMG4); IgG purified from hybridoma supernatant; also called mAb 5.88.3
B2: anti-Ang-2 monoclonal antibody 3.31.2 (antibody, V domains shown)
VH: EVQLVESGGGLVQPGGSLRLSCAASGFTFSSYWMSWVRQAPGKGLEWVANIKQDGSDKYYVDSVKGRFTISRDNAKNSLYLRMNSLRAEDTAVFYCARDMGSGWFDYWGQGTLVTVSS
VL: B1 VL with I2V, I20T, I29V, S30G, Y87C, Y93H
notes: Fully human IgG kappa from XenoMouse hybridoma (strains XMG2 and XMG4); IgG purified from hybridoma supernatant; also called mAb 3.31.2
B3: anti-Ang-2 monoclonal antibody 5.101.1 (antibody, V domains shown)
VH: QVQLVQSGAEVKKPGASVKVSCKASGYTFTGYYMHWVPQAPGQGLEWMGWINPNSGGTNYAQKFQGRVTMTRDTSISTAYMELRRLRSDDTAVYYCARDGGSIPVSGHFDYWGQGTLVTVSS
VL: B1 VL with I20T, I29L, S30I, Y49F, Q89H, Y93N
notes: Fully human IgG kappa from XenoMouse hybridoma (strains XMG2 and XMG4); IgG purified from hybridoma supernatant; also called mAb 5.101.1
B4: anti-Ang-2 monoclonal antibody 3.3.2 (antibody, V domains shown)
VH: EVQLVESGGGLVQPGGSLRLSCAVSGFTFSSYWMSWVRQAPGKGLEWVANIKQDGSEKYYVDSVKGRFTISRDNAKNSLYLQMNSLRAEDTAVYYCARDQGIAVAGPFDYWGQGTLVTVSS
VL: B1 VL with I20T, S28T, I29V, N32D, T53I, Y87S, N92Y, Y93N
notes: Fully human IgG kappa from XenoMouse hybridoma (strains XMG2 and XMG4); IgG purified from hybridoma supernatant; also called mAb 3.3.2
B5: anti-Ang-2 monoclonal antibody 5.103.1 (antibody, V domains shown)
VH: QVQLVQSGAEVKKPGASVKVSCKASGYTFTGYYLYWVPQAPGQGLEWMGWISPNSGGTNYAQKFQGRVTMTRDTSISTAYMELSRLRSDDTAVYYCARDQVIAVAGPFDYWAQGTLVTVSS
VL: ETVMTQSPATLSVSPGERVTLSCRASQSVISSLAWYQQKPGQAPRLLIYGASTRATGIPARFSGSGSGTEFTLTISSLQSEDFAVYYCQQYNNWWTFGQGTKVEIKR
notes: Fully human IgG kappa from XenoMouse hybridoma (strains XMG2 and XMG4); IgG purified from hybridoma supernatant; also called mAb 5.103.1
B6: anti-Ang-2 monoclonal antibody 5.86.1 (antibody, V domains shown)
VH: B5 VH with Y33H, L34M, P38R, M48L, S52N, A97V, V101G, V104A, A112C
VL: DIRMTQSPSSLSASVGDRVTITCRASQRISTYLNWYQQKPGKAPKFLIYAASSLQSGVPSRFSGSGSGTDFTLTISSLQPEDFATYYCQQSYTTPFTFGPGTKVDIKR
notes: Fully human IgG kappa from XenoMouse hybridoma (strains XMG2 and XMG4); IgG purified from hybridoma supernatant; also called mAb 5.86.1
B7: anti-Ang-2 monoclonal antibody 5.28.1 (antibody, V domains shown)
VH: EVQLVESGGIVVQPGGSLRLSCAASGFTFDDYTMHWVRQTPGKGLEWVSLISWDGGSTYYADSVKGRFTISRDNSKNSLYLQMNSLRTEDTALYYCAKDIDIAVAGTGFDHWGQGTLVTVSS
VL: EIVMTQSPATLSVSPGERATLSCRASQSVTSNLAWYQQKPGQAPRLLIYGALIRATGIPARFSGSGSGTEFTLTISSLQSEDFAVYYCQQYNNWPFTFGPGTKVDIKR
notes: Fully human IgG kappa from XenoMouse hybridoma (strains XMG2 and XMG4); IgG purified from hybridoma supernatant; also called mAb 5.28.1
B8: anti-Angiopoietin-2 monoclonal antibody 3.19.3 (antibody, V domains shown)
VH: QVQLVESGGGVVQPGRSLRLSCAASGFTFTNYGMHWGRQAPGKGLEWVAVISHDGNNKYYVDSVKGRFTISRDNSKNTLYLQMNSLRAEDTAVYYCAREGIDFWSGLNWFDPWGQGTLVTVSS
VL: EIVLTQSPGTLSLSPGERATLSCRASQSITGSYLAWYQQKPGQAPRLLICGASSWATGIPDRFSGSGSGTDFTLTISRLEPEDFAVYYCQQYSSSPITFGQGTRLEIKR
notes: Fully human IgG kappa from XenoMouse hybridoma (strains XMG2 and XMG4); IgG purified from hybridoma supernatant

The binders below were run against T1, biotinylated recombinant human … (assay: competitive binding ELISA: biotinylated Angiopoietin-2 on plate-coated Tie-2/Fc, purified mAb).

Efficacy (ratio of bound Angiopoietin-2 with mAb (30 µg/ml) versus without mAb)	Binder
0.403 ratio	B1
0.375 ratio	B2
0.364 ratio	B3
0.388 ratio	B4
0.232 ratio	B5
0.384 ratio	B6
0.389 ratio	B7
0.395 ratio	B8
